Laboratory results from publication PMC8198530, “The Odd Faces of Oligomers: The Case of TRAF2-C, A Trimeric C-Terminal Domain of TNF Receptor-Associated Factor” (International Journal of Molecular Sciences, 2021).

Target: the molecule itself
Test: dynamic light scattering; TRAF2-C 4 uM in kinase buffer (20 mM Tris-HCl pH 7.6, 150 mM NaCl, 10% glycerol); 20-35 °C, where the particle distribution is sharp and mono-disperse

B1: TRAF2-C, C-terminal domain truncated form of TNF Receptor Associated Factor 2 (TRAF2) (domain or fragment, human, UniProt Q12933 310-501, looked up)
chain: DQDKIEALSSKVQQLERSIGLKDLAMADLEQKVLEMEASTYDGVFIWKISDFARKRQEAVAGRIPAIFSPAFYTSRYGYKMCLRIYLNGDGTGRGTHLSLFFVVMKGPNDALLRWPFNQKVTLMLLDQNNREHVIDAFRPDVTSSSFQRPVNDMNIASGCPLFCPVSKMEAKNSYVRDDAIFIKAIVDLTGL
notes: human TRAF2, C-terminal domain (TRAF2-C), residues 310-501; It describes the protein as a trimer in equilibrium with dimers and monomers; also called TRAF2-C domain; source: E. coli BL21 (DE3), purified (NiNTA, Sephadex G25)
Does B1 bind?
Result: binds
